Measured values taken from the supplement of paper PMC10567573.

B1: RHOBTB3 (parent)
chain: KVVEAHKIVLCAVSHVFMLLFNVK
B2: IMPA1 (parent)
chain: FIGEESVAAGEKSILTDNPTWIID

Variants of: B1
Test: protein stability index of a GFP-peptide fusion (GPS, HEK-293T) (PSI 1-6); higher = more stable
Details: c terminus: a fixed tail appended
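Also: lentivirally expressed fusions sorted by FACS into six bins by GFP to DsRed ratio, PSI derived from sequencing read proportions per bin multiplied by bin number.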

Question: Which protein stability index does the source give for KVVEAHKIVLCAVSHVFMLLFNYK here?
Answer: 3.03

Question: With KVVEAHKIVLCAVSHVFMLLFNDK as the variant, how does the protein stability index read?
Answer: 2.29

Question: For KVVEAHKIVLCAVSHVFMLLFNQK, which protein stability index is on record?
Answer: 1.91

Question: With KVVEAHKIVLCAVSHVFMLLFNRK as the variant, how does the protein stability index read?
Answer: 3.19

Question: For KVVEAHKIVLCAVSHVFMLLFNIK, which protein stability index is on record?
Answer: 2.57

Question: Which protein stability index does the source give for KVVEAHKIVLCAVSHVFMLLFNEK here?
Answer: 3.25

Question: For KVVEAHKIVLCAVSHVFMLLFNWK, which protein stability index is on record?
Answer: 2.5

Question: Which protein stability index does the source give for KVVEAHKIVLCAVSHVFMLLFNPK here?
Answer: 2.86

Question: Which protein stability index does the source give for KVVEAHKIVLCAVSHVFMLLFNFK here?
Answer: 2.99

Question: With KVVEAHKIVLCAVSHVFMLLFNMK as the variant, how does the protein stability index read?
Answer: 1.75

Question: With KVVEAHKIVLCAVSHVFMLLFNTK as the variant, how does the protein stability index read?
Answer: 3.33

Question: Which protein stability index does the source give for KVVEAHKIVLCAVSHVFMLLFNHK here?
Answer: 3.18

Question: Which protein stability index does the source give for KVVEAHKIVLCAVSHVFMLLFNSK here?
Answer: 2.44

Question: For KVVEAHKIVLCAVSHVFMLLFNCK, which protein stability index is on record?
Answer: 2.47

Question: Which protein stability index does the source give for KVVEAHKIVLCAVSHVFMLLFNGK here?
Answer: 3.05

Question: Which protein stability index does the source give for KVVEAHKIVLCAVSHVFMLLFNLK here?
Answer: 2.62

Question: Which protein stability index does the source give for KVVEAHKIVLCAVSHVFMLLFNKK here?
Answer: 3.66

Question: For KVVEAHKIVLCAVSHVFMLLFNVP, which protein stability index is on record?
Answer: 3.35

Question: With KVVEAHKIVLCAVSHVFMLLFNVI as the variant, how does the protein stability index read?
Answer: 2.06

Question: For KVVEAHKIVLCAVSHVFMLLFNVD, which protein stability index is on record?
Answer: 3.08

Question: For KVVEAHKIVLCAVSHVFMLLFNVY, which protein stability index is on record?
Answer: 2.57

Question: Which protein stability index does the source give for KVVEAHKIVLCAVSHVFMLLFNVH here?
Answer: 1.55

Question: For KVVEAHKIVLCAVSHVFMLLFNVC, which protein stability index is on record?
Answer: 2.8

Question: Which protein stability index does the source give for KVVEAHKIVLCAVSHVFMLLFNVV here?
Answer: 3.19

Question: For KVVEAHKIVLCAVSHVFMLLFNVR, which protein stability index is on record?
Answer: 2.48

Question: With KVVEAHKIVLCAVSHVFMLLFNVN as the variant, how does the protein stability index read?
Answer: 4.04

Question: With KVVEAHKIVLCAVSHVFMLLFNVL as the variant, how does the protein stability index read?
Answer: 2.21

Question: Which protein stability index does the source give for KVVEAHKIVLCAVSHVFMLLFNVG here?
Answer: 2.28

Question: For KVVEAHKIVLCAVSHVFMLLFNVM, which protein stability index is on record?
Answer: 2.27

Question: Which protein stability index does the source give for KVVEAHKIVLCAVSHVFMLLFNVF here?
Answer: 2.39

Question: Which protein stability index does the source give for KVVEAHKIVLCAVSHVFMLLFNVE here?
Answer: 3.19

Question: For KVVEAHKIVLCAVSHVFMLLFNVT, which protein stability index is on record?
Answer: 2.95

Question: With KVVEAHKIVLCAVSHVFMLLFNVA as the variant, how does the protein stability index read?
Answer: 3.31

Question: With KVVEAHKIVLCAVSHVFMLLFNVW as the variant, how does the protein stability index read?
Answer: 2.42

Question: For KVVEAHKIVLCAVSHVFMLLFIVK, which protein stability index is on record?
Answer: 3.19

Question: Which protein stability index does the source give for KVVEAHKIVLCAVSHVFMLLFCVK here?
Answer: 2.31

Question: Which protein stability index does the source give for KVVEAHKIVLCAVSHVFMLLFKVK here?
Answer: 1.9

Question: With KVVEAHKIVLCAVSHVFMLLFMVK as the variant, how does the protein stability index read?
Answer: 3.79

Question: With KVVEAHKIVLCAVSHVFMLLFRVK as the variant, how does the protein stability index read?
Answer: 2.69

Question: With KVVEAHKIVLCAVSHVFMLLFHVK as the variant, how does the protein stability index read?
Answer: 2.8

Question: With KVVEAHKIVLCAVSHVFMLLFQVK as the variant, how does the protein stability index read?
Answer: 2.84

Question: For KVVEAHKIVLCAVSHVFMLLFDVK, which protein stability index is on record?
Answer: 3.27

Question: Which protein stability index does the source give for KVVEAHKIVLCAVSHVFMLLFTVK here?
Answer: 4.37

Question: Which protein stability index does the source give for KVVEAHKIVLCAVSHVFMLLFEVK here?
Answer: 2.47

Question: For KVVEAHKIVLCAVSHVFMLLFGVK, which protein stability index is on record?
Answer: 2.71

Question: With KVVEAHKIVLCAVSHVFMLLFFVK as the variant, how does the protein stability index read?
Answer: 2.43

Question: For KVVEAHKIVLCAVSHVFMLLFYVK, which protein stability index is on record?
Answer: 1.85

Question: For KVVEAHKIVLCAVSHVFMLLFSVK, which protein stability index is on record?
Answer: 2.72

Question: Which protein stability index does the source give for KVVEAHKIVLCAVSHVFMLLFLVK here?
Answer: 2.42

Question: Which protein stability index does the source give for KVVEAHKIVLCAVSHVFMLLFPVK here?
Answer: 2.1

Variants of: B2
Test: as above
Details: c terminus: a fixed tail appended

Question: For FIGNESVAAGEKSILTDNPTWIID, which protein stability index is on record?
Answer: 1.98

Question: With FIGQESVAAGEKSILTDNPTWIID as the variant, how does the protein stability index read?
Answer: 1.5

Question: With FIGMESVAAGEKSILTDNPTWIID as the variant, how does the protein stability index read?
Answer: 2.35

Question: With FIGFESVAAGEKSILTDNPTWIID as the variant, how does the protein stability index read?
Answer: 3.31

Question: For FIGDESVAAGEKSILTDNPTWIID, which protein stability index is on record?
Answer: 2.01

Question: With FIGKESVAAGEKSILTDNPTWIID as the variant, how does the protein stability index read?
Answer: 1.83

Question: Which protein stability index does the source give for FIGVESVAAGEKSILTDNPTWIID here?
Answer: 1.53

Question: For FIGCESVAAGEKSILTDNPTWIID, which protein stability index is on record?
Answer: 2.04

Question: With FIGSESVAAGEKSILTDNPTWIID as the variant, how does the protein stability index read?
Answer: 1.8

Question: With FIGIESVAAGEKSILTDNPTWIID as the variant, how does the protein stability index read?
Answer: 1.84

Question: Which protein stability index does the source give for FIGTESVAAGEKSILTDNPTWIID here?
Answer: 1.85

Question: For FIGPESVAAGEKSILTDNPTWIID, which protein stability index is on record?
Answer: 1.77

Question: Which protein stability index does the source give for FIGAESVAAGEKSILTDNPTWIID here?
Answer: 2.54

Question: For FIGWESVAAGEKSILTDNPTWIID, which protein stability index is on record?
Answer: 3.71

Question: Which protein stability index does the source give for FIGGESVAAGEKSILTDNPTWIID here?
Answer: 2.14

Question: For FIGRESVAAGEKSILTDNPTWIID, which protein stability index is on record?
Answer: 2.04

Question: For FIGHESVAAGEKSILTDNPTWIID, which protein stability index is on record?
Answer: 1.76

Question: Which protein stability index does the source give for FIGLESVAAGEKSILTDNPTWIID here?
Answer: 1.8

Question: For FIGYESVAAGEKSILTDNPTWIID, which protein stability index is on record?
Answer: 1.9

Question: For FIGEKSVAAGEKSILTDNPTWIID, which protein stability index is on record?
Answer: 1.88

Question: Which protein stability index does the source give for FIGEISVAAGEKSILTDNPTWIID here?
Answer: 3.46

Question: For FIGEASVAAGEKSILTDNPTWIID, which protein stability index is on record?
Answer: 2.05

Question: With FIGEQSVAAGEKSILTDNPTWIID as the variant, how does the protein stability index read?
Answer: 2.38

Question: With FIGERSVAAGEKSILTDNPTWIID as the variant, how does the protein stability index read?
Answer: 2

Question: Which protein stability index does the source give for FIGESSVAAGEKSILTDNPTWIID here?
Answer: 1.92

Question: For FIGEHSVAAGEKSILTDNPTWIID, which protein stability index is on record?
Answer: 1.93

Question: For FIGENSVAAGEKSILTDNPTWIID, which protein stability index is on record?
Answer: 1.53

Question: Which protein stability index does the source give for FIGEMSVAAGEKSILTDNPTWIID here?
Answer: 2.31

Question: Which protein stability index does the source give for FIGEFSVAAGEKSILTDNPTWIID here?
Answer: 3.35

Question: Which protein stability index does the source give for FIGEWSVAAGEKSILTDNPTWIID here?
Answer: 1.29

Question: Which protein stability index does the source give for FIGECSVAAGEKSILTDNPTWIID here?
Answer: 2.7

Question: For FIGEGSVAAGEKSILTDNPTWIID, which protein stability index is on record?
Answer: 2.79

Question: Which protein stability index does the source give for FIGEVSVAAGEKSILTDNPTWIID here?
Answer: 3.68

Question: For FIGELSVAAGEKSILTDNPTWIID, which protein stability index is on record?
Answer: 1.71

Question: For FIGEYSVAAGEKSILTDNPTWIID, which protein stability index is on record?
Answer: 2.52

Question: For FIGEPSVAAGEKSILTDNPTWIID, which protein stability index is on record?
Answer: 2.35

Question: For FIGETSVAAGEKSILTDNPTWIID, which protein stability index is on record?
Answer: 2.38

Question: Which protein stability index does the source give for FIGEDSVAAGEKSILTDNPTWIID here?
Answer: 1.89

Question: For FMGEESVAAGEKSILTDNPTWIID, which protein stability index is on record?
Answer: 3.7

Question: Which protein stability index does the source give for FFGEESVAAGEKSILTDNPTWIID here?
Answer: 3.65

Question: Which protein stability index does the source give for FQGEESVAAGEKSILTDNPTWIID here?
Answer: 3.89

Question: Which protein stability index does the source give for FRGEESVAAGEKSILTDNPTWIID here?
Answer: 4.28

Question: Which protein stability index does the source give for FLGEESVAAGEKSILTDNPTWIID here?
Answer: 2.99

Question: Which protein stability index does the source give for FCGEESVAAGEKSILTDNPTWIID here?
Answer: 2.27
